Reference: paper PMC8352597
One block for each substance: values may come before it.

Legend:
[1] = target: microtubules polymerised from porcine brain tubulin (porcine) (UniProt P02550); assay: TIRF microscopy (sfGFP fluorescence intensity on immobilised microtubules); taxol-stabilized microtubules immobilised on the glass surface, sfGFP-DCLK1 flowed in; no ATP; 60 mM HEPES pH 7.4, 50 mM K acetate, 2 mM Mg acetate, 1 mM EGTA, 10% glycerol, biotin-BSA, Pluronic, κ-casein, 10 μM …; KD from a one-site-binding hyperbola fit of intensity against concentration
[2] = target: microtubules polymerised from porcine brain tubulin (porcine) (UniProt P02550); assay: TIRF microscopy (sfGFP fluorescence intensity on immobilised microtubules); as a3, but DCLK1 pre-incubated with 2 mM ATP for 30 min at 25°C
[3] = target: microtubules polymerised from porcine brain tubulin (porcine) (UniProt P02550); assay: co-sedimentation; as a5, but DCLK1 pre-incubated with 2 mM ATP at 25°C for 30 min
[4] = target: microtubules polymerised from porcine brain tubulin (porcine) (UniProt P02550); assay: TIRF microscopy (sfGFP fluorescence intensity on immobilised microtubules); as a1, but DCLK1 incubated with 2 mM ATP for 30 min at 25°C before it was flowed onto immobilised taxol-stabilized microtubules; KD from a one-site-binding hyperbola fit
[5] = target: microtubules polymerised from porcine brain tubulin (porcine) (UniProt P02550); assay: co-sedimentation; 500 nM sfGFP-DCLK1 with 2 μM taxol-stabilized microtubules, 25°C 20 min, pelleted at 90,000 xg; 50 mM Tris pH 8, 150 mM K acetate, 2 mM Mg acetate, 1 mM EGTA, 10% glycerol; DCLK1 pre-incubated 30 min without ATP
[6] = target: microtubules polymerised from porcine brain tubulin (porcine) (UniProt P02550); assay: TIRF microscopy (sfGFP fluorescence intensity on immobilised microtubules); non-stabilized GDP microtubules grown from GMPCPP seeds fixed to the coverslip; 10 nM DCLK1 with 10 uM tubulin and 2 mM GTP in BRB80-based assay buffer; DCLK1 pre-incubated 30 min at 25°C without ATP

Chain of microtubules polymerised from porcine brain tubulin (porcine) (P02550 whole entry, chain 1 of 2): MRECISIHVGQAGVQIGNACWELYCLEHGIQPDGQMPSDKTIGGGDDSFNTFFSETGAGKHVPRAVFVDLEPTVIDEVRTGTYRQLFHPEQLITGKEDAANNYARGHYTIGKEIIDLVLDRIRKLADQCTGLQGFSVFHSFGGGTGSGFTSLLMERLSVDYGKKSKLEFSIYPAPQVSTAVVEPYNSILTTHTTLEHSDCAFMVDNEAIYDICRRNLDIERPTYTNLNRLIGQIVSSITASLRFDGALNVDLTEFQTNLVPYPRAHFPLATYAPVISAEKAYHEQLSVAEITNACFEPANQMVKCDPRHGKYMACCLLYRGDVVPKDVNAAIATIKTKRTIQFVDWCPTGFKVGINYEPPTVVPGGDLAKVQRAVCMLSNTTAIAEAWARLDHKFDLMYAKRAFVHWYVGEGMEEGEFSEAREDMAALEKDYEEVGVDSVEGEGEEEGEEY
Chain of microtubules polymerised from porcine brain tubulin (porcine) (P02554 whole entry, chain 2 of 2, further chain): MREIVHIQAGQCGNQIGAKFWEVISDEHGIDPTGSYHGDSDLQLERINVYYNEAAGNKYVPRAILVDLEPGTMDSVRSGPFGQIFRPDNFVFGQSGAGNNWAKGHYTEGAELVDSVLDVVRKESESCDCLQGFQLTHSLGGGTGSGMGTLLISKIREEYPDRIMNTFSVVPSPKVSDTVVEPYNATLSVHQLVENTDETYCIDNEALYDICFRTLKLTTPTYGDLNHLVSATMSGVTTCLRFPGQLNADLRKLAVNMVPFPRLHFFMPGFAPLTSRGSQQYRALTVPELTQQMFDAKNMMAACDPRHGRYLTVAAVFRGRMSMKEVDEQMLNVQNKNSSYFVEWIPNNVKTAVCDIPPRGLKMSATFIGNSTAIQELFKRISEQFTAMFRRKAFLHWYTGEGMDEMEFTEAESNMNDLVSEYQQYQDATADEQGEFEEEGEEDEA

- microtubule-bound fluorescence intensity at 10 nM [2]: 12500
- percent of DCLK1 that co-pelleted with microtubules [3]: 86.2%
Substance: sfGFP-DCLK1 wild type (mouse, aa 1-740), co-expressed with lambda phosphatase, autophosphorylated by 30 min with 2 mM ATP (natural protein)

- microtubule-bound fluorescence intensity at 5 nM [4]: 4040
- microtubule-bound fluorescence intensity at 20 nM [4]: 12600
Substance: sfGFP-DCLK1-ΔC DC1-4A (S77, S83, S96, T143 to alanine), co-expressed with lambda phosphatase, incubated with ATP (domain or fragment)

- microtubule-bound fluorescence intensity at 5 nM [1]: 8550
- microtubule-bound fluorescence intensity at 20 nM [1]: 19900
Substance: sfGFP-DCLK1-ΔC DC2-4A (T189, S193, T218, S228 to alanine), co-expressed with lambda phosphatase, not incubated with ATP (domain or fragment)

- microtubule-bound fluorescence intensity at 3 nM [1]: 9070
- microtubule-bound fluorescence intensity at 25 nM [1]: 19700
Substance: sfGFP-DCLK1-D511N (kinase-dead, mouse, full length) (natural protein)

- microtubule-bound fluorescence intensity at 3 nM [1]: 2750
- microtubule-bound fluorescence intensity at 25 nM [1]: 16100
Substance: sfGFP-DCLK1 wild type (mouse, aa 1-740), expressed in bacteria under standard conditions (natural protein)

- microtubule-bound fluorescence intensity at 10 nM [2]: 1580
- microtubule-bound fluorescence intensity at 5 nM [4]: 988
- microtubule-bound fluorescence intensity at 20 nM [4]: 1580
- percent of DCLK1 that co-pelleted with microtubules [3]: 6.9%
Substance: sfGFP-DCLK1-ΔC (mouse, aa 1-648), co-expressed with lambda phosphatase, hyperphosphorylated by 30 min with 2 mM ATP (domain or fragment)

More lines, now with the values behind:

Substance: sfGFP-DCLK1-ΔC (mouse, aa 1-648), treated with lambda phosphatase after purification (domain or fragment)
- microtubule-bound fluorescence intensity at 3 nM [1]: 12000
- microtubule-bound fluorescence intensity at 25 nM [1]: 21200

Substance: sfGFP-DCLK1-ΔC DC2-4A (T189, S193, T218, S228 to alanine), co-expressed with lambda phosphatase, incubated with ATP (domain or fragment)
- microtubule-bound fluorescence intensity at 5 nM [4]: 2480
- microtubule-bound fluorescence intensity at 20 nM [4]: 3500

Substance: sfGFP-DCLK1-T688A (mouse, full length), co-expressed with lambda phosphatase, not incubated with ATP (natural protein)
- percent of DCLK1 that co-pelleted with microtubules [5]: 98.9%

Substance: sfGFP-DCLK1 wild type (mouse, aa 1-740), treated with lambda phosphatase after purification (natural protein)
- microtubule-bound fluorescence intensity at 3 nM [1]: 15100
- microtubule-bound fluorescence intensity at 25 nM [1]: 18200

Substance: sfGFP-DCLK1-ΔC DC1-4A (S77, S83, S96, T143 to alanine), co-expressed with lambda phosphatase, not incubated with ATP (domain or fragment)
- microtubule-bound fluorescence intensity at 5 nM [1]: 12200
- microtubule-bound fluorescence intensity at 20 nM [1]: 22300

Substance: sfGFP-DCLK1-ΔC (mouse, aa 1-648), co-expressed with lambda phosphatase, not incubated with ATP (domain or fragment)
- microtubule-bound fluorescence intensity at 5 nM [1]: 12900
- microtubule-bound fluorescence intensity at 20 nM [1]: 23600
- microtubule-bound fluorescence intensity at 10 nM [6]: 12100
- percent of DCLK1 that co-pelleted with microtubules [5]: 96.3%

Substance: sfGFP-DCLK1 wild type (mouse, aa 1-740), co-expressed with lambda phosphatase, not incubated with ATP (natural protein)
- microtubule-bound fluorescence intensity at 10 nM [6]: 15000
- percent of DCLK1 that co-pelleted with microtubules [5]: 99.3%

Substance: sfGFP-DCLK1-T688A (mouse, full length), co-expressed with lambda phosphatase, incubated 30 min with 2 mM ATP (natural protein)
- percent of DCLK1 that co-pelleted with microtubules [3]: 7.9%
